Results taken from the supplement of paper PMC10567573.
± gives the standard deviation.

Assay: protein stability index of a GFP-peptide fusion (GPS, HEK-293T) (PSI 1-6); higher = more stable
Details: c terminus: a fixed tail appended
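Note: 24-mer peptide tiles fused after GFP, lentivirally expressed, FACS-sorted into six equal bins by GFP/DsRed ratio, decoded by Illumina sequencing, PSI is the read-weighted mean bin number.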

| Sequence | protein stability index (treatment: DMSO) | protein stability index (treatment: MLN4924 1 uM, 8 h) |
| --- | --- | --- |
| EEEMNALRGQVGGEINVEMDAAPG [KRT17] | 5.45 ± 0.34 | 5.53 ± 0.13 |
| IANPNSLNHVKSMWYPEIKHFCPR [RHOBTB1] | 2.22 ± 0.13 | 2.4 ± 0.26 |
| ALDLAREFLPQGPVAMRVAKLAIN [AUH] | 2.89 ± 0.18 | 2.83 ± 0.25 |
| ASEAFHWDERGRAAAYSPSEALLY [ANKRD9] | 3.37 ± 0.21 | 3.4 ± 0.4 |
| FPKINHGILYDEEKYKPFSQVPTG [CFHR2] | 2.4 ± 0.28 | 3.36 ± 0.34 |
| AEKETELSLQKEQLQLKIIEIEDE [TRIM29] | 5.42 ± 0.26 | 5.45 ± 0.26 |
| CGFTVAQIITSLVFHLPFYSSNQL [OR10K2] | 3.15 ± 0.51 | 2.95 ± 0.41 |
| ITYPMLFKLTNKNSDRMTHCGVLE [UFD1] | 2.46 ± 0.17 | 2.43 ± 0.23 |
| NCPEFPPPDRTLGCWATDAAPAAG [RSPH3] | 4.4 ± 0.4 | 4.47 ± 0.3 |
| GPAGHSKGELAPELGEEPQPRDEE [POLD4] | 5.41 ± 0.23 | 5.43 ± 0.15 |
| QVAMPYQWEYPYLLSILPSLLGLL [JAGN1] | 2.8 ± 0.36 | 2.85 ± 0.64 |
| FDCPSELQHTQELFPQWHLPIKIA [STEAP1] | 2.78 ± 0.33 | 2.79 ± 0.38 |
| YLRCIQSEVSFEGAYGNLKRLYDK [SMG5] | 2.61 ± 0.26 | 2.64 ± 0.34 |
| TFVSTCQAIDATVAAELLNHLLES [HES6] | 2.48 ± 0.35 | 2.48 ± 0.32 |
| KKVSEGPPLRLWRSVIEVPAVPEE [DLC1] | 3.37 ± 0.42 | 3.91 ± 0.46 |
| ENARSGAEAEPEDQDEGEWGLDQE [ZBED1] | 5.62 ± 0.15 | 5.56 ± 0.28 |
| CQVGGIEALVRTVLRAGDREDITE [CTNNB1] | 3.28 ± 0.46 | 3.21 ± 0.46 |
| ASLGLTQTQVKIWFQNKRSKFKKL [DLX1] | 2.37 ± 0.19 | 2.61 ± 0.47 |

| Sequence | protein stability index (treatment: DMSO) | protein stability index (treatment: MLN4924 1 uM, 8 h) |
| --- | --- | --- |
| VWKYFGFDTNAEGCILQWKKIYCR [ZBED1] | 2.37 ± 0.56 | 2.2 ± 0.41 |
| CFVKDNPQKSYFIRLYGLQAGRLL [WAS] | 2.49 ± 0.58 | 2.22 ± 0.45 |
| HIRHLGWNPDARYSEHFLQEAKLL [GLT8D2] | 2.49 ± 0.17 | 2.79 ± 0.4 |
| CSIGFAVRYLNAYTGIVLLRCRKE [POP5] | 3.13 ± 0.43 | 2.99 ± 0.57 |
| SYAHGWMFQGWNCGDYFPDGITNG [CPN1] | 2.35 ± 0.18 | 2.27 ± 0.17 |
| TIVSCTPVHLVDKLPLPSTLRSHL [RAB40A] | 2.32 ± 0.091 | 2.28 ± 0.15 |
| YHSPELTTPPGHGTLDNSKSMKPY [NEUROD6] | 2.87 ± 0.65 | 3.7 ± 0.67 |
| ERGPYRTRKHAHHCHKRRTRSCSS [CLK3] | 4.42 ± 0.24 | 4.51 ± 0.15 |
| SSSSSASSSASSSFSEEGAVGYSS [NFE2L1] | 5.25 ± 0.16 | 5.32 ± 0.13 |
| SLGAVGEGFHNYHHSFPYDYSASE [SCD] | 3.81 ± 0.24 | 3.88 ± 0.28 |
| HQPVVRQCGPQTGLQSPGTLQPPE [TBX5] | 4.41 ± 0.27 | 4.63 ± 0.12 |
| KSSILTRAGEQRKRSQSMKSYPSS [CLCN6] | 4.46 ± 0.25 | 4.6 ± 0.18 |
| LIYMVTIMGNLLIIVTIMASQSLG [OR4A15] | 3.18 ± 0.43 | 3.1 ± 0.29 |
| FQVNKLMKKIKKLENDTISKQLTL [CCDC6] | 2.26 ± 0.12 | 2.38 ± 0.33 |
| ISNVCEEYIVKKLSRQEFLGMVGL [SLC35F2] | 2.32 ± 0.17 | 2.35 ± 0.13 |
| EKIAAEIAQAEEQARKRQEEREKE [SMARCE1] | 5.44 ± 0.17 | 5.74 ± 0.25 |
| VGKTRLICARACNTTLTQYQLLAT [RHOBTB1] | 2.18 ± 0.35 | 2.21 ± 0.12 |
| PPTYPTKYFGCELGAQTQFDVKND [EIF5] | 4.35 ± 0.17 | 4.494 ± 0.038 |
